# Data published in the supplement of paper PMC11780869.
# Test system: Bacillus subtilis
# Assay: cleaved RNA product abundance (RNA/gDNA barcode ratio) relative to median wild-type variant (ratio to wild type); higher = more accumulation of the downstream cleavage product
# Details: cleavage site: cggR-gapA (positions -7 to +36 mutated)
# Outline: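 Cleaved product abundance was measured with barcoded reporter mRNAs (truncated aprE or tetM) carrying mutagenized RNase Y cleavage-site windows in the B. subtilis chromosome. Cultures in LB at 37°C grew from OD600 0.0003 to 0.3. Gel-selected cleaved RNA was reverse transcribed and barcode-sequenced with genomic DNA barcodes, and the RNA:gDNA barcode ratio per construct was scaled to the median construct bearing the unmutated site.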
# [1] = experiment (reporter, strain, medium): exp 2b: truncated aprE reporter, strain BJT200
# [2] = experiment (reporter, strain, medium): exp 4a: truncated aprE reporter, strain BJT201 with 2% xylose (RNase J1 expressed)
# [3] = experiment (reporter, strain, medium): exp 6: tetM reporter, strain 168
sequence,measurement,setting,value
ACAGACGAAGGAGCCGCAAAGAGGTTATTAAGGGATGAATAATCCATCAATATAAATATCTCTCACTTATTTAAA,cleaved RNA product abundance,[1],0.176
ACAGACGAAGGAGCCGCAAAGAGGTTATTAAGGGATGAATAATCCCTAAATATAAATATCTCTCACTTATTTAAA,cleaved RNA product abundance,[2],0.386
ACAGACGAAGGAGCCGCAAAGAGGTTATTAAGGGATGAATAATCCCTCAATATAAATATCTCTCACTTATTTAAA,cleaved RNA product abundance,[1],0.814
same,cleaved RNA product abundance,[2],0.754
same,cleaved RNA product abundance,[3],0.737
ACAGACGAAGGAGCCGCAAAGAGGTTATTAAGGGATGAATAATCCGTCAATATAAATATCTCTCACTTATTTAAA,cleaved RNA product abundance,[2],0.296
ACAGACGAAGGAGCCGCAAAGAGGTTATTAAGGTATGAATAATCCCTCAATATAAATATCTCTCACTTATTTAAA,cleaved RNA product abundance,[2],0.1
ACAGACGAAGGAGCCGCAAAGAGGTTATTAAGTGATGAATAATCCCTCAATATAAATATCTCTCACTTATTTAAA,cleaved RNA product abundance,[2],0.0848
ACAGACGAAGGAGCCGCAAAGAGGTTATTAATGGATGAATAATCCCTCAATATAAATATCTCTCACTTATTTAAA,cleaved RNA product abundance,[1],0.13
same,cleaved RNA product abundance,[2],0.0978
ACAGACGAAGGAGCCGCAAAGAGGTTATTTAGGGATGAATAATCCCTCAATATAAATATCTCTCACTTATTTAAA,cleaved RNA product abundance,[2],0.527
ACAGACGAAGGAGCCGCAAAGATATTATTAAGGGATGAATAATCCCTCAATATAAATATCTCTCACTTATTTAAA,cleaved RNA product abundance,[1],0.93
same,cleaved RNA product abundance,[2],0.459
ACAGACGAAGGAGCCGCAAAGATGATATTAAGGGATGAATAATCCCTCAATATAAATATCTCTCACTTATTTAAA,cleaved RNA product abundance,[1],0.664
same,cleaved RNA product abundance,[2],0.676
ACAGACGAAGGAGCCGCAAAGATGCTATTAAGGGATGAATAATCCCTCAATATAAATATCTCTCACTTATTTAAA,cleaved RNA product abundance,[2],0.848
ACAGACGAAGGAGCCGCAAAGATGTAATTAAGGGATGAATAATCCCTCAATATAAATATCTCTCACTTATTTAAA,cleaved RNA product abundance,[2],0.427
ACAGACGAAGGAGCCGCAAAGATGTCATTAAGGGATGAATAATCCCTCAATATAAATATCTCTCACTTATTTAAA,cleaved RNA product abundance,[2],0.205
ACAGACGAAGGAGCCGCAAAGATGTTAATAAGGGATGAATAATCCCTCAATATAAATATCTCTCACTTATTTAAA,cleaved RNA product abundance,[1],0.237
same,cleaved RNA product abundance,[2],0.311
ACAGACGAAGGAGCCGCAAAGATGTTATAAAGGGATGAATAATCCCTCAATATAAATATCTCTCACTTATTTAAA,cleaved RNA product abundance,[1],0.259
same,cleaved RNA product abundance,[2],0.441
ACAGACGAAGGAGCCGCAAAGATGTTATCAAGGGATGAATAATCCCTCAATATAAATATCTCTCACTTATTTAAA,cleaved RNA product abundance,[1],0.239
same,cleaved RNA product abundance,[2],0.328
ACAGACGAAGGAGCCGCAAAGATGTTATTAAAGGATGAATAATCCCTCAATATAAATATCTCTCACTTATTTAAA,cleaved RNA product abundance,[2],0.129
ACAGACGAAGGAGCCGCAAAGATGTTATTAACGGATGAATAATCCCTCAATATAAATATCTCTCACTTATTTAAA,cleaved RNA product abundance,[1],0.104
same,cleaved RNA product abundance,[2],0.151
ACAGACGAAGGAGCCGCAAAGATGTTATTAAGAGATGAATAATCCCTCAATATAAATATCTCTCACTTATTTAAA,cleaved RNA product abundance,[2],0.156
ACAGACGAAGGAGCCGCAAAGATGTTATTAAGCGATGAATAATCCCTCAATATAAATATCTCTCACTTATTTAAA,cleaved RNA product abundance,[1],0.0873
same,cleaved RNA product abundance,[2],0.11
ACAGACGAAGGAGCCGCAAAGATGTTATTAAGGAATGAATAATCCCTCAATATAAATATCTCTCACTTATTTAAA,cleaved RNA product abundance,[1],0.102
same,cleaved RNA product abundance,[2],0.145
ACAGACGAAGGAGCCGCAAAGATGTTATTAAGGCATGAATAATCCCTCAATATAAATATCTCTCACTTATTTAAA,cleaved RNA product abundance,[1],0.108
same,cleaved RNA product abundance,[2],0.104
ACAGACGAAGGAGCCGCAAAGATGTTATTAAGGGAAGAATAATCCCTCAATATAAATATCTCTCACTTATTTAAA,cleaved RNA product abundance,[2],0.51
ACAGACGAAGGAGCCGCAAAGATGTTATTAAGGGATAAATAATCCCTCAATATAAATATCTCTCACTTATTTAAA,cleaved RNA product abundance,[2],0.906
ACAGACGAAGGAGCCGCAAAGATGTTATTAAGGGATCAATAATCCCTCAATATAAATATCTCTCACTTATTTAAA,cleaved RNA product abundance,[1],0.708
same,cleaved RNA product abundance,[2],1.08
ACAGACGAAGGAGCCGCAAAGATGTTATTAAGGGATGAAAAATCCCTCAATATAAATATCTCTCACTTATTTAAA,cleaved RNA product abundance,[1],0.583
same,cleaved RNA product abundance,[2],0.733
ACAGACGAAGGAGCCGCAAAGATGTTATTAAGGGATGAATAAACCCTCAATATAAATATCTCTCACTTATTTAAA,cleaved RNA product abundance,[2],0.275
ACAGACGAAGGAGCCGCAAAGATGTTATTAAGGGATGAATAATACCTCAATATAAATATCTCTCACTTATTTAAA,cleaved RNA product abundance,[1],0.128
same,cleaved RNA product abundance,[2],0.142
ACAGACGAAGGAGCCGCAAAGATGTTATTAAGGGATGAATAATCACTCAATATAAATATCTCTCACTTATTTAAA,cleaved RNA product abundance,[2],0.181
ACAGACGAAGGAGCCGCAAAGATGTTATTAAGGGATGAATAATCCATCAATATAAATATCTCTCACTTATTTAAA,cleaved RNA product abundance,[1],0.171
same,cleaved RNA product abundance,[2],0.311
ACAGACGAAGGAGCCGCAAAGATGTTATTAAGGGATGAATAATCCCACAATATAAATATCTCTCACTTATTTAAA,cleaved RNA product abundance,[1],0.227
same,cleaved RNA product abundance,[2],0.248
ACAGACGAAGGAGCCGCAAAGATGTTATTAAGGGATGAATAATCCCTAAATATAAATATCTCTCACTTATTTAAA,cleaved RNA product abundance,[2],1.11
ACAGACGAAGGAGCCGCAAAGATGTTATTAAGGGATGAATAATCCCTCAAAATAAATATCTCTCACTTATTTAAA,cleaved RNA product abundance,[2],0.502
ACAGACGAAGGAGCCGCAAAGATGTTATTAAGGGATGAATAATCCCTCAACATAAATATCTCTCACTTATTTAAA,cleaved RNA product abundance,[2],0.223
ACAGACGAAGGAGCCGCAAAGATGTTATTAAGGGATGAATAATCCCTCAATATAAATAACTCTCACTTATTTAAA,cleaved RNA product abundance,[1],0.767
same,cleaved RNA product abundance,[2],0.897
ACAGACGAAGGAGCCGCAAAGATGTTATTAAGGGATGAATAATCCCTCAATATAAATACCTCTCACTTATTTAAA,cleaved RNA product abundance,[1],0.71
ACAGACGAAGGAGCCGCAAAGATGTTATTAAGGGATGAATAATCCCTCAATATAAATATCTCTCACTTATTTAAA,cleaved RNA product abundance,[1],0.938
same,cleaved RNA product abundance,[2],0.996
same,cleaved RNA product abundance,[3],1.01
ACAGACGAAGGAGCCGCAAAGATGTTATTAAGGGATGAATAATCCCTCAATATACATATCTCTCACTTATTTAAA,cleaved RNA product abundance,[2],0.483
ACAGACGAAGGAGCCGCAAAGATGTTATTAAGGGATGAATAATCCCTCAATATATATATCTCTCACTTATTTAAA,cleaved RNA product abundance,[2],0.975
ACAGACGAAGGAGCCGCAAAGATGTTATTAAGGGATGAATAATCCCTCAATCTAAATATCTCTCACTTATTTAAA,cleaved RNA product abundance,[2],0.0528
ACAGACGAAGGAGCCGCAAAGATGTTATTAAGGGATGAATAATCCCTCACTATAAATATCTCTCACTTATTTAAA,cleaved RNA product abundance,[1],0.166
ACAGACGAAGGAGCCGCAAAGATGTTATTAAGGGATGAATAATCCCTCATTATAAATATCTCTCACTTATTTAAA,cleaved RNA product abundance,[2],0.411
ACAGACGAAGGAGCCGCAAAGATGTTATTAAGGGATGAATAATCCCTCGATATAAATATCTCTCACTTATTTAAA,cleaved RNA product abundance,[1],0.352
ACAGACGAAGGAGCCGCAAAGATGTTATTAAGGGATGAATAATCCCTCTATATAAATATCTCTCACTTATTTAAA,cleaved RNA product abundance,[2],0.447
ACAGACGAAGGAGCCGCAAAGATGTTATTAAGGGATGAATAATCCCTGAATATAAATATCTCTCACTTATTTAAA,cleaved RNA product abundance,[2],0.628
ACAGACGAAGGAGCCGCAAAGATGTTATTAAGGGATGAATAATCCGTCAATATAAATATCTCTCACTTATTTAAA,cleaved RNA product abundance,[1],0.113
same,cleaved RNA product abundance,[2],0.2
ACAGACGAAGGAGCCGCAAAGATGTTATTAAGGGATGAATAATCCTTCAATATAAATATCTCTCACTTATTTAAA,cleaved RNA product abundance,[1],0.366
same,cleaved RNA product abundance,[2],0.613
ACAGACGAAGGAGCCGCAAAGATGTTATTAAGGGATGAATAATCTCTCAATATAAATATCTCTCACTTATTTAAA,cleaved RNA product abundance,[2],0.874
ACAGACGAAGGAGCCGCAAAGATGTTATTAAGGGATGAATAATGCCTCAATATAAATATCTCTCACTTATTTAAA,cleaved RNA product abundance,[2],0.186
ACAGACGAAGGAGCCGCAAAGATGTTATTAAGGGATGAATAATTCCTCAATATAAATATCTCTCACTTATTTAAA,cleaved RNA product abundance,[2],0.89
ACAGACGAAGGAGCCGCAAAGATGTTATTAAGGGATGAATACTCCCTCAATATAAATATCTCTCACTTATTTAAA,cleaved RNA product abundance,[1],0.648
ACAGACGAAGGAGCCGCAAAGATGTTATTAAGGGATGAATATTCCCTCAATATAAATATCTCTCACTTATTTAAA,cleaved RNA product abundance,[1],0.623
same,cleaved RNA product abundance,[2],0.556
ACAGACGAAGGAGCCGCAAAGATGTTATTAAGGGATGAATGATCCCTCAATATAAATATCTCTCACTTATTTAAA,cleaved RNA product abundance,[2],0.51
ACAGACGAAGGAGCCGCAAAGATGTTATTAAGGGATGCATAATCCCTCAATATAAATATCTCTCACTTATTTAAA,cleaved RNA product abundance,[1],0.859
same,cleaved RNA product abundance,[2],1.1
ACAGACGAAGGAGCCGCAAAGATGTTATTAAGGGATTAATAATCCCTCAATATAAATATCTCTCACTTATTTAAA,cleaved RNA product abundance,[2],0.703
ACAGACGAAGGAGCCGCAAAGATGTTATTAAGGGGTGAATAATCCCTCAATATAAATATCTCTCACTTATTTAAA,cleaved RNA product abundance,[1],0.656
ACAGACGAAGGAGCCGCAAAGATGTTATTAAGGGTTGAATAATCCCTCAATATAAATATCTCTCACTTATTTAAA,cleaved RNA product abundance,[1],0.251
ACAGACGAAGGAGCCGCAAAGATGTTATTAAGGTATGAATAATCCCTCAATATAAATATCTCTCACTTATTTAAA,cleaved RNA product abundance,[2],0.161
ACAGACGAAGGAGCCGCAAAGATGTTATTAAGTGATGAATAATCCCTCAATATAAATATCTCTCACTTATTTAAA,cleaved RNA product abundance,[1],0.1
same,cleaved RNA product abundance,[2],0.11
